# Experimental data from patent US20260060994A1, “GLYCOSYLATED COMPOSITIONS AND METHODS OF USE” (Cy Biopharma AG, priority 2023, published 2026).
# B1: GLY164: glycosyltransferase (UGT), SEQ ID NO: 24 (protein)
# chain: MKEKAELVFIPSPSVGHLVSVIVFAKRLLLLDRDNAAGSNNSFSITVLVMQEHTATASDNDAHIKSLAGAGATADVSIRFIGVPKMNPPPLDYFKSPEKFITEYVDSHKDCIKEAIIEHVLNNNVKIAGLVLDFFCSSMIDTANELGVPSYVFFTSGAAFLGFVLHLPTRGGEEFEESEADSADIFTYANPVPYRVLPSLCFNKHGGFSAFENFGRRFKETKGIIVNTFEELESHAVEYLMKCDGVPPVYNVGPMIDLHGDIHARPRGGGTQRDEIIRWLDDQPASSVVFLCFGSMGSFGEEQIKEVASGLGKSGVRFLWSLRKTPPKDRPEMPGEYTCVEDILPRGFQERSKGRGMICGWAPQKEVLAHSAIGGFVSHCGWNSILESVWFGVPIVTWPIYAEQQINAFQMVRDLGLAVELRLDYRRGTENHVMADELARAVGCVMDGDSEVRKRVKEVSEKARLALRDGGSSYAATGRLIEDLFGSVS
# B2: GLY119: glycosyltransferase (UGT), SEQ ID NO: 16 (protein)
# chain: MGSLGHQLHIFFLPFFAHGHMIPSVDMAKLFASRGIKTTIITTPLNAPFFSKTIQKTKELGFDINILTIKFPAAEAGLPEGYENTDAFIFSENAREMTIKFIKATTFLQAPFEKVLQECHPDCIVADVFFPWATDAAAKFGIPRLVFHGTSNFALSASECVRLYEPHKKVSSDSEPFVVPDLPGDIKLTKKQLPDDVRENVENDFSKFLKASKEAELRSFGVVVNSFYELEPAYADYYKKVLGRRAWNVGPVSLCNRDTEDKAGRGKETSIDHHECLKWLDSKKPNSVVYICFGSTTNFSDSQLKEIAAGLEASGQQFIWVVRRNKKGQEDKEDWLPEGFEERMEGVGLIIRGWAPQVLILDHEAIGAFVTHCGWNSTLEGITAGKPMVTWPIFAEQFYNEKLVTDVLKTGVGVGVKEWFRVHGDHVKSEAVEKTITQIMVGEEAEEMRSRAKKLGETARKAVEEGGSSYSDFNALIEELRWRRP
# B3: GLY108: glycosyltransferase (UGT), SEQ ID NO: 14 (protein)
# chain: MGSQQEHIVMLPFMAQGHIIPFLALAKQIQQRTGFTITIANTPLNIQYLRTTISTSDDSSRPCIRLAELPFCSSDHGLPPNTENTEALSFHQIVDLFHASKTLQAPFHSLVSGIIEKEGRPPLCIISDVFFGWATEVAKSLGTSNVTFTTGGGYGTAAYISLWQNLPHRATDSDYFALPGFPDSCRFHITQLHQYLRAADGTDAWSRYFQPQIALSLDSSGWLCNTAEEIEPHGLEILRNYVKPPVWTIGPLLPPALLNHSLSSGSSIFGQRAWKVSGVSPEKCLDWLDKHPQSSVLYISFGSQNTISPSQMMELALGLEDSGKPFIWVIRPPVGFDIEGEFRAEWLPQNFEQRMAESNQGLIVHKWAPQLEILSHKSTGVFLSHCGWNSVMESLCVGVPIIGWPLAAEQCYNSKMLTEDMGVAVELTRGRQGALERKEVKRVIELVMDSKGKGEEMKKKATEIGEKIRDAMREGGSSLKAMDDFVSTMLSKRQGY
# Experiment: Glycosylation of 4-HO-MET by GLY enzymes (UDP-glucose), LC-UV/MS
# Type: biochemical
# Settings: 0.5 mM 4-OH-MET, 1.25 mM UDP-glucose, 25% (v/v) GLY enzyme, 24 h at 30° C.; estimate from UV peak areas
# Experimental: 4-HO-MET was dissolved in 100% (v/v) DMSO to a concentration of 10 mM. The solution was stored at −20° C. prior to use.
# FastAP phosphatase (1 U/uL) from ThermoFisher Scientific (catalog no. EF0651).
# GLY enzyme suspensions contain 10 mM Tris-HCl at pH7.4, 250 mM imidazole and 50% (v/v) glycerol.
# The assay conditions were: • 100 mM Tris-HCl, pH 7.4 • 5 mM MgCl2 • 1 mM KCl • 1.25 mM UDP-glucose • 0.5 mM 4-OH-MET • 5% (v/v) DMSO • 0.1 U/uL Fast AP phosphatase • 25% (v/v) GLY enzyme
# Incubation was 24 house at 30° C. Reactions were terminated adding 3 volumes of 75% (v/v) ethanol.
# LC separation was performed using an Agligen 1290 Infinity II UHPLC equipped with a Phenomenex Kinetex XB-C18 column (1.7 um, 100 angstroms, 100×2.1 mm) and 4-HO-MET was detected by absorbance at 210 nm and 268 nm with an Agilent 1260 Infinity II DAD.
# 0.1% Formic acid in water (A) and 0.1% Formic acid in acetonitrile (B) were used as the mobile phases for the elution gradient, with a flow rate of 0.4 ml/min. Retention time for 4-HO-MET using this type of instrument under these condition was 2.6 min. The system was coupled to an Ultivo Triple Quadrupole MS. To verify the presence of possible glycoside products, as SIM (Selected Ion Monitoring) method was used on the MS to analyse for the m/z 381 (theoretical mass to chart ratio of 4-HO-MET-glucoside) and m/z 219 (theoretical mass to charge ratio of 4-HO-MET).
# As standard, 4-HO-MET solutions at a concentrations of 500, 250, 125, 62.5, and 31.25 uM were prepared from the 10 mM stock and used for caliboration.
# A representative example of the chromatograms obtained with a wavelength of 268 nm for the standard solutions resuspended in the reaction buffer, and the corresponding MS-SIM signal, is shown in FIG. 16. The peak corresponding to 4-HO-MET is indicated.
# When analyzing the GLY reactions, 30 of them gave an additional peak with retention time 2.2 min (i.e. in the expected region for a 4-HO-MET glucoside) and molecular mass compatible with the expected glucoside product, together with a corresponding decrease in substrate concentration, compared to the no-enzyme controls.
# The method was repeated using various GLY enzymes to produce 4-HO-MET glucosides.
# The enzymes giving the additional peak putatively corresponding to the 4-HO-MET-β-D-glucoside are listed below. […] A correct quantification of the product is not possible without a standard for the specific molecule. However, based on the assumption that the ratio area-to-concentration in the UV chromatograms will be similar to 4-HO-MET, estimates of the relative abundance for the additional peak are also given, expressed as percentage of converted 4-HO-MET. GLY enzymes hits are ranked according to their estimated conversion efficiency.
row,Molecule,4-OH-MET GLY % (percentage of converted 4-HO-MET) [%]
1,B1,10.2
2,B2,6
3,B3,8.7
